Test results reported in the supplement of paper PMC10724198.
± gives the standard deviation of the averaged measurements.

Assays:
[1] = system: Saccharomyces cerevisiae; test: protein stability index of tFT-peptide fusion (C-terminal peptide) (PSI (0-1 scale)); higher = more stable (slower turnover)
Method: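 MPS profiling in S. cerevisiae of the tFT-X12 degron library: putative degron peptides plus stable controls, 12 aa, fused to the C-terminus of a sfGFP-mCherry timer. Cells are FACS-sorted into 8 mCherry/sfGFP bins and deep-sequenced. PSI runs from 0 (unstable) to 1 (stable). Backgrounds are wild type, das1Δ and doa10Δ at 30 °C, and wild type, das1Δ, cdc34-1 and cdc53-1 at 37 °C; 2-3 technical replicates each.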

[2] = system: Saccharomyces cerevisiae; test: as above; conditions: genetic background: wild type; temperature: 30 C
[3] = genetic background: cdc34-1, temperature: 37 C
[4] = genetic background: cdc53-1, temperature: 37 C
[5] = genetic background: das1 deletion, temperature: 30 C
[6] = genetic background: das1 deletion, temperature: 37 C
[7] = genetic background: doa10 deletion, temperature: 30 C
[8] = genetic background: wild type, temperature: 30 C
[9] = genetic background: wild type, temperature: 37 C
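Further: PSI is a weighted mean of sequencing reads over stability bins, variants kept only with over 10 reads, mCherry proximal and sfGFP distal, peptide attached via GGGS linker.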

Sequence | protein stability index [1, 3] | protein stability index [1, 4] | protein stability index [1, 5] | protein stability index [1, 6] | protein stability index [1, 7] | protein stability index [1, 8] | protein stability index [1, 9] | protein stability index [2]
VFVGWVLCVVGG | 0.04576 ± 0.00018 | 0.161 ± 0.0032 | 0.143 ± 0.021 | 0.2762 ± 0.00081 | 0.0778 ± 0.03 | 0.132 ± 0.027 | 0.2377 ± 0.002 | 0.218 ± 0.045
YCAAVCFWGLYC | 0.522 ± 0.015 | 0.654 ± 0.023 | 0.541 ± 0.029 | 0.668 ± 0.012 | 0.13 ± 0.0034 | 0.154 ± 0.013 | 0.233 ± 0.011 | 0.242 ± 0.024
FFILVFFSLLST | 0.2927 ± 0.0014 | 0.445 ± 0.018 | 0.283 ± 0.049 | 0.441 ± 0.032 | 0.244 ± 0.041 | 0.274 ± 0.033 | 0.4056 ± 0.0022 | 0.404 ± 0.032
LPLQPPPPVCLP | 0.65583 ± 3.7e-05 | 0.7163 ± 0.0065 | 0.629 ± 0.024 | 0.7199 ± 0.0036 | 0.634 ± 0.031 | 0.644 ± 0.018 | 0.69 ± 0.011 | 0.376 ± 0.022
VLVVLVVCRRAE | 0.247 ± 0.039 | 0.412 ± 0.0043 | 0.226 ± 0.028 | 0.438 ± 0.0089 | 0.18 ± 0.041 | 0.226 ± 0.029 | 0.422 ± 0.0083 | 0.324 ± 0.032
PPPPPPLPSPSS | 0.664 ± 0.038 | 0.742 ± 0.024 | 0.64 ± 0.021 | 0.754 ± 0.012 | 0.659 ± 0.015 | 0.68 ± 0.023 | 0.699 ± 0.019 | 0.35 ± 0.0078
FCCWCVCFGYSG | 0.575 ± 0.093 | 0.604 ± 0.013 | 0.395 ± 0.019 | 0.582 ± 0.0089 | 0.372 ± 0.02 | 0.394 ± 0.025 | 0.549 ± 0.007 | 0.443 ± 0.0049
WAAVGIQLRLLF | 0.354 ± 0.011 | 0.34 ± 0.015 | 0.317 ± 0.034 | 0.47357 ± 9.6e-05 | 0.233 ± 0.026 | 0.199 ± 0.018 | 0.347 ± 0.022 | 0.3323 ± 0.00057
VVPVGLYSVILV | 0.427 ± 0.012 | 0.447 ± 0.028 | 0.322 ± 0.03 | 0.4839 ± 0.0039 | 0.289 ± 0.0065 | 0.306 ± 0.021 | 0.451 ± 0.02 | 0.4269 ± 0.0008
YYFFLTFLCYVF | 0.153 ± 0.024 | 0.216 ± 0.039 | 0.154 ± 0.023 | 0.255 ± 0.01 | 0.148 ± 0.019 | 0.112 ± 0.027 | 0.221 ± 0.011 | 0.207 ± 0.018
RGYSAIWGCKMN | 0.619 ± 0.097 | 0.742 ± 0.045 | 0.654 ± 0.0072 | 0.74 ± 0.011 | 0.184 ± 0.021 | 0.228 ± 0.018 | 0.529 ± 0.077 | 0.3812 ± 0.0021
LPPSTFLLHFLL | 0.667 ± 0.046 | 0.714 ± 0.011 | 0.656 ± 0.013 | 0.744 ± 0.0099 | 0.218 ± 0.018 | 0.232 ± 0.026 | 0.415 ± 0.0062 | 0.317 ± 0.0077
PCTFYLFWMFFV | 0.4168 ± 0.0038 | 0.565 ± 0.042 | 0.43 ± 0.018 | 0.6011 ± 0.0014 | 0.223 ± 0.011 | 0.228 ± 0.021 | 0.328 ± 0.0081 | 0.3041 ± 0.002
KEKKKTKHNKIG | 0.587 ± 0.059 | 0.7521 ± 0.0072 | 0.631 ± 0.014 | 0.742 ± 0.011 | 0.184 ± 0.029 | 0.155 ± 0.032 | 0.314 ± 0.02 | 0.216 ± 0.038
NENQIKVIMLLV | 0.4964 ± 0.0021 | 0.572 ± 0.092 | 0.344 ± 0.052 | 0.555 ± 0.0077 | 0.153 ± 0.0095 | 0.196 ± 0.04 | 0.268 ± 0.011 | 0.266 ± 0.011
